Reference: the Human Domainome abundance scans (Beltran et al. 2025)
± gives the uncertainty stated by the source.

B1: Zinc finger MYM-type protein 3, residues 589 to 668; numbered along this chain, Q14202 (parent)
chain: LSCHYCHSLFSGKPEVLDWQDQVFQFCCRDCCEDFKRLRGVVSQCEHCRQEKLLHEKLRFSGVEKSFCSEGCVLLYKQDF
B2: Nucleolar transcription factor 1, residues 408 to 469; numbered along this chain, P17480 (parent)
chain: KRPVSAMFIFSEEKRRQLQEERPELSESELTRLLARMWNDLSEKKKAKYKAREAALKAQSER

Variants of: B1
Test: abundance fitness (aPCA) (normalised: wild type 0, dead -1); higher = more abundant; growth selection in yeast, the domain comes from the species named
Settings: Homo sapiens

Abundance fitness, by site and new letter:
F60: T -0.975 ± 0.46 | V 0.204 ± 0.093
E64: G -0.48 ± 0.21 | Q -0.363 ± 0.18 | W -0.176 ± 0.22 | M -0.316 ± 0.18 | C -0.165 ± 0.42 | I -0.344 ± 0.46 | V -0.359 ± 0.3 | D 0.047 ± 0.31 | A -0.571 ± 0.23 | R -0.692 ± 0.16 | L -0.633 ± 0.25 | H -0.355 ± 0.34 | T -0.238 ± 0.31
E70: R -0.687 ± 0.31 | Q 0.199 ± 0.14 | L -0.055 ± 0.15 | C 0.121 ± 0.14 | W -0.918 ± 0.4 | M -0.152 ± 0.22 | I 0.781 ± 0.38 | A -0.096 ± 0.15 | G -0.116 ± 0.12 | S 0.067 ± 0.12 | D 0 ± 0.5 | P 0.069 ± 0.21 | V -0.066 ± 0.12 | T -0.048 ± 0.21
C72: S -0.935 ± 0.29 | L -1.04 ± 0.23 | P -0.725 ± 0.39 | R -0.781 ± 0.17 | M -0.514 ± 0.28 | A -0.525 ± 0.2 | W -0.53 ± 0.17 | K -0.33 ± 0.24 | E -0.644 ± 0.28 | T -0.869 ± 0.22 | Q -0.317 ± 0.41 | V -0.647 ± 0.15
S61: R -0.137 ± 0.11 | K -0.096 ± 0.16 | Q -0.12 ± 0.17 | P -0.424 ± 0.24 | M 0.02 ± 0.17 | V -0.389 ± 0.18 | W -0.467 ± 0.2 | L -0.311 ± 0.2 | E 0.293 ± 0.081 | D 0.665 ± 0.13 | A 0.284 ± 0.12 | G 0.282 ± 0.077
V73: D -0.521 ± 0.24 | T -0.167 ± 0.19 | A 0.236 ± 0.086 | W -0.167 ± 0.18 | S 0.167 ± 0.093 | R 0.149 ± 0.082 | E -0.027 ± 0.17 | L 0.268 ± 0.11 | G -0.188 ± 0.11 | Q -0.309 ± 0.2
Q78: M -0.372 ± 0.26 | R 0.113 ± 0.076 | C -0.892 ± 0.35 | P -0.595 ± 0.21 | E 0.018 ± 0.17 | W -0.698 ± 0.21 | L 0.466 ± 0.12 | T -0.188 ± 0.17 | H 0.565 ± 0.25 | I -0.34 ± 0.42 | A 0.034 ± 0.11 | S 0.069 ± 0.15 | V -0.833 ± 0.16 | G -0.292 ± 0.1 | D 0.567 ± 0.22
S69: I -0.15 ± 0.36 | D -0.702 ± 0.29 | K -0.282 ± 0.26 | G -0.64 ± 0.1 | C 0.093 ± 0.19 | W -0.623 ± 0.26 | A -0.023 ± 0.16 | E -0.341 ± 0.15 | R -0.456 ± 0.11 | Q -0.638 ± 0.42 | V -0.534 ± 0.17 | P -0.445 ± 0.29
D79: P 0.119 ± 0.22 | G 0.187 ± 0.074 | E 0.018 ± 0.15 | A 0.089 ± 0.12 | T -0.07 ± 0.14 | S 0.241 ± 0.15 | K 0.856 ± 0.22 | V -0.531 ± 0.23 | R 0.351 ± 0.11 | W -0.378 ± 0.19 | L 0.034 ± 0.13 | Q 0.475 ± 0.17
S66: L 0.068 ± 0.12 | H 0.295 ± 0.38 | Q -0.618 ± 0.35 | A -0.222 ± 0.15 | G -0.392 ± 0.12 | E -0.473 ± 0.18 | M -0.002 ± 0.28 | Y 0.382 ± 0.16 | T -0.617 ± 0.28 | R -0.059 ± 0.085 | V -0.235 ± 0.14 | P -0.834 ± 0.32 | K 0.067 ± 0.11
C68: K -0.525 ± 0.24 | M -0.505 ± 0.32 | A -0.93 ± 0.23 | Q -0.558 ± 0.19 | R -0.892 ± 0.28 | E -0.911 ± 0.26 | S -0.619 ± 0.21 | W -1.18 ± 0.37 | G -0.88 ± 0.15
K77: L -0.304 ± 0.18 | S -0.495 ± 0.23 | F -0.394 ± 0.39 | V -0.193 ± 0.14 | G -0.404 ± 0.12 | P -0.71 ± 0.22 | T -0.108 ± 0.16 | Q -0.149 ± 0.38 | E -0.406 ± 0.18 | R -0.455 ± 0.14 | A -0.78 ± 0.19
G71: Q 0.378 ± 0.16 | L -0.105 ± 0.1 | H -0.037 ± 0.32 | E 0.62 ± 0.085 | V -0.043 ± 0.11 | M 0.721 ± 0.24 | S 0.453 ± 0.1 | K 0.337 ± 0.22 | T 0.414 ± 0.11 | I 0.317 ± 0.42 | W -0.219 ± 0.22 | C -0.535 ± 0.21 | R 0.501 ± 0.073 | D 0.351 ± 0.28 | A 0.156 ± 0.087
F80: T 0.652 ± 0.24 | G 0.033 ± 0.14 | R 0.522 ± 0.082 | L 0.5 ± 0.12 | P 0.525 ± 0.22 | S 0.194 ± 0.14 | C 0.093 ± 0.2 | W -0.146 ± 0.38 | V 0.281 ± 0.094 | A 0.288 ± 0.16 | M 0.294 ± 0.26
L74: G 0.183 ± 0.099 | P -0.205 ± 0.43 | A 0.404 ± 0.077 | Y -0.446 ± 0.38 | E 0.662 ± 0.091 | D 0.145 ± 0.13 | T 0.151 ± 0.13 | H 0.041 ± 0.3 | I -0.381 ± 0.35 | W 0.081 ± 0.13 | Q 0.244 ± 0.15 | N 0.453 ± 0.22 | S -0.081 ± 0.19 | V -0.195 ± 0.099 | M 0.292 ± 0.11 | R 0.484 ± 0.08
V63: T -0.271 ± 0.28 | R -0.285 ± 0.11 | P -0.198 ± 0.33 | S -0.255 ± 0.2 | E 0.175 ± 0.11 | A -0.109 ± 0.13 | K -0.13 ± 0.23 | L -0.074 ± 0.18 | Q -0.548 ± 0.36 | D -0.175 ± 0.21
Y76: Q -0.179 ± 0.15 | N 0.757 ± 0.38 | T -0.038 ± 0.22 | G -0.28 ± 0.098 | D -0.176 ± 0.17 | H 0.329 ± 0.24 | K -0.048 ± 0.13 | E -0.107 ± 0.11 | W -0.542 ± 0.22 | M -0.524 ± 0.34 | L -0.663 ± 0.24 | V -0.317 ± 0.14 | S -0.473 ± 0.16
K65: M 0.26 ± 0.21 | A -0.268 ± 0.16 | P 0.325 ± 0.49 | Q -0.692 ± 0.27 | D -0.711 ± 0.25 | Y -0.113 ± 0.25 | L -0.441 ± 0.2 | G -0.779 ± 0.16 | T -0.495 ± 0.28 | S -1.12 ± 0.48 | V -0.317 ± 0.19 | R -0.115 ± 0.098 | E -1.07 ± 0.26
F67: T -0.614 ± 0.18 | W -0.302 ± 0.32 | E -0.626 ± 0.18 | N -0.231 ± 0.33 | G 0.039 ± 0.12 | S -0.297 ± 0.18 | K -0.391 ± 0.16 | Q -0.338 ± 0.14 | L -0.852 ± 0.21 | R -0.497 ± 0.12 | C 0.283 ± 0.18 | A -0.47 ± 0.18 | P -0.47 ± 0.19 | H 0.092 ± 0.13 | M -0.567 ± 0.29
G62: Q -0.865 ± 0.36 | R -0.788 ± 0.2 | P -1.01 ± 0.25 | V -0.8 ± 0.33 | E 0.013 ± 0.19 | W -0.85 ± 0.22 | A -0.722 ± 0.18 | M -0.3 ± 0.32 | L -1.05 ± 0.27
L75: S 0.258 ± 0.11 | M 0.176 ± 0.41 | E 0.268 ± 0.11 | P -0.268 ± 0.2 | N 0.227 ± 0.14 | K 0.318 ± 0.23 | W -0.561 ± 0.13 | Q 0.573 ± 0.18 | T -0.078 ± 0.12 | A 0.615 ± 0.073 | V -0.551 ± 0.15 | G 0.276 ± 0.073 | C 0.373 ± 0.21 | H -0.295 ± 0.3 | D 0.492 ± 0.17

Variants of: B2
Test: as above
Settings: Homo sapiens

Abundance fitness of substitutions, site by site:
R2: F -0.043 ± 0.069 | A -0.151 ± 0.065 | H -0.025 ± 0.096 | M -0.13 ± 0.073 | L -0.215 ± 0.059 | N -0.003 ± 0.072 | C -0.178 ± 0.095 | S -0.072 ± 0.068 | T -0.143 ± 0.13 | W -0.453 ± 0.11 | D -0.109 ± 0.15 | V -0.049 ± 0.056 | E -0.132 ± 0.12 | Q -0.317 ± 0.1 | I -0.158 ± 0.17 | Y 0.01 ± 0.16 | G -0.204 ± 0.062
V4: W -0.602 ± 0.072 | Y -0.099 ± 0.069 | M -0.031 ± 0.079 | C -0.213 ± 0.08 | S -0.082 ± 0.053 | P -0.238 ± 0.11 | H -0.172 ± 0.15 | G -0.094 ± 0.047 | I -0.018 ± 0.065 | N -0.104 ± 0.18 | F -0.156 ± 0.078 | D -0.011 ± 0.085 | A -0.061 ± 0.074 | L -0.031 ± 0.055 | K -0.053 ± 0.067 | Q -0.099 ± 0.08 | R -0.24 ± 0.055 | T -0.111 ± 0.078 | E 0.037 ± 0.11
P3: W -0.297 ± 0.066 | S -0.014 ± 0.052 | V -0.02 ± 0.09 | Y -0.071 ± 0.082 | T 0.021 ± 0.095 | G -0.083 ± 0.054 | R -0.095 ± 0.033 | D -0.04 ± 0.12 | Q -0.011 ± 0.058 | F -0.021 ± 0.079 | A -0.137 ± 0.068 | I 0.036 ± 0.12 | E -0.059 ± 0.099 | C -0.264 ± 0.1 | L -0.068 ± 0.068 | H -0.061 ± 0.088
S5: P -0.112 ± 0.09 | D -0.02 ± 0.061 | M -0.196 ± 0.084 | E 0.042 ± 0.094 | G -0.031 ± 0.051 | C -0.148 ± 0.15 | I -0.178 ± 0.096 | Q -0.115 ± 0.087 | N 0.047 ± 0.12 | T -0.042 ± 0.057 | L -0.164 ± 0.048 | K -0.041 ± 0.085
K1: L -0.048 ± 0.16 | C -0.367 ± 0.18 | W -0.205 ± 0.072 | T -0.06 ± 0.096 | H -0.212 ± 0.1 | I 0 ± 0.25 | Y -0.105 ± 0.32 | Q -0.196 ± 0.29 | E -0.139 ± 0.075 | A -0.287 ± 0.14 | D 0.006 ± 0.091 | S -0.276 ± 0.14 | F -0.245 ± 0.14 | G -0.08 ± 0.076 | N -0.191 ± 0.17 | M 0.004 ± 0.11 | V -0.136 ± 0.11 | R -0.199 ± 0.084
